In assay [1] the target is T1, humanized dPHD-HD1 (Pygo PHD F773W in complex with Lgs HD1) (Drosophila, UniProt Q9V9W8 747-804; Q961D9 321-353, F773W).
T1 sequence 1: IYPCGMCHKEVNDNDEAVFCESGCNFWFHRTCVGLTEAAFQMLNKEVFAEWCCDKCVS
T1 sequence 2: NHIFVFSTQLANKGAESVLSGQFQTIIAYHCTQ
Nature of the assay: ITC; linked PHD-HD1 complex (uncleaved). (In ITC the heat of successive injections is recorded.)

In assay [2] the target is T1, humanized dPHD-HD1 (Pygo PHD F773W in …). Kind of assay: ITC; linked PHD-HD1 complex (uncleaved linker).

On to ARTKQTARKSTGGKA (dimethyl-lysine at K4 (K4me2)) [H3K4me2 15-mer (histone H3 tail peptide dimethylated at lysine 4)], for which the Kd in assay [1] and in assay [2] was 7.5 µM in each case.

Source of the values: publication PMC3851687 (2013).
